Experimental data: the Immune Epitope Database (IEDB)
pKd: −log10 of the molar value.

Columns and labels:
Assay in all cases: IEDB peptide-MHC binding, purified MHC/competitive/radioactivity; filed as Kd, often an IC50 or EC50 that approximates it; ≥ and ≤ were set here for values at or beyond the usual limits of such assays
[1] = biological target: HLA-A*11:01
[2] = biological target: HLA-A*03:01
[3] = biological target: HLA-A*68:01
[4] = biological target: HLA-A*31:01
[5] = biological target: HLA-A*33:01
[6] = source organism: Dengue virus 2 Jamaica/1409/1983
[7] = source organism: Triticum aestivum
[8] = source organism: Dengue virus 4 Philippines/H241/1956
[9] = source organism: SARS coronavirus Tor2
[10] = source organism: Vaccinia virus WR
[11] = source organism: Lymphocytic choriomeningitis virus (strain Armstrong)
[12] = source organism: Dengue virus 1 Nauru/West Pac/1974
[13] = source organism: Mammarenavirus guanaritoense
[14] = source organism: Mammarenavirus machupoense
[15] = source organism: Dengue virus 3 Martinique/1243/1999
[16] = source organism: Dengue virus 1 Brazil/97-11/1997
[17] = source organism: Vaccinia virus Copenhagen
[18] = source organism: Dengue virus 4 Dominica/814669/1981
[19] = source organism: Mammarenavirus whitewaterense

Sequence | pKd [1, 10] | pKd [3, 10] | pKd [2, 10] | pKd [4, 10] | pKd [5, 10] | also measured
AIFLTTLSR |  |  |  |  |  | pKd [1, 6]: 7.18; pKd [2, 6]: 7.21
AIILHQQQK |  |  |  |  |  | pKd [1, 7]: 7.42; pKd [3, 7]: 6.03; pKd [2, 7]: 6.98; pKd [4, 7]: ≤ 4.69; pKd [5, 7]: ≤ 4.11
AINVLRGFRK |  |  |  |  |  | pKd [1, 6]: 6.59; pKd [2, 6]: 7.04
ALAPPVNDLK |  |  |  |  |  | pKd [2, 8]: 7.32
ALLGKKKNPR |  |  |  |  |  | pKd [4, 8]: 6.45
AQPCSDKAYK |  |  |  |  |  | pKd [1, 9]: 7.17; pKd [3, 9]: 5.20; pKd [2, 9]: 6.50; pKd [4, 9]: 5.95; pKd [5, 9]: 5.02
ASAFFGMSR |  |  |  |  |  | pKd [1, 9]: 6.83; pKd [3, 9]: 6.71; pKd [2, 9]: 5.50; pKd [4, 9]: 7.66; pKd [5, 9]: ≤ 4.38
ATLKNVTEVK |  |  |  |  |  | pKd [1, 8]: 6.55
ATSSFREKSR | 8.86 | 8.72 | 7.23 | 8.44 | 6.79 | 
ATYLGPQFCK |  |  |  |  |  | pKd ([1]; source organism: Mammarenavirus lassaense): 8.49
CAAYYFMKFR |  |  |  |  |  | pKd [1, 9]: 7.19; pKd [3, 9]: 7.15; pKd [2, 9]: 6.68; pKd [4, 9]: 7.96; pKd [5, 9]: 6.85
DAYNIADAAR | 6.21 | 8.89 | 4.80 | 7.72 | 9.09 | 
DITFLRPVLK | 7.14 | 7.37 | 6.80 | 6.59 | 5.23 | 
DKYGWLCKMH |  |  |  |  |  | pKd [1, 11]: ≤ 4.16; pKd [3, 11]: ≤ 4.15; pKd [2, 11]: ≤ 4.15; pKd [4, 11]: ≤ 4.23; pKd [5, 11]: ≤ 4.15
DLKWARFPK |  |  |  |  |  | pKd [1, 9]: 6.15; pKd [3, 9]: 7.29; pKd [2, 9]: 5.25; pKd [4, 9]: 6.41; pKd [5, 9]: 7.70
DSYTQVCDHR |  |  |  |  |  | pKd [5, 12]: 5.74
ECLRRRVTR |  |  |  |  |  | pKd [5, 8]: 6.61
ECYVQRFFLR |  |  |  |  |  | pKd [3, 13]: 6.55; pKd [2, 13]: 4.75; pKd [4, 13]: 8.22; pKd [5, 13]: 7.35
EECLRRRVTR |  |  |  |  |  | pKd [5, 8]: 6.11
FADNDRQDIY | ≤ 4.34 | 5.90 | ≤ 4.15 | ≤ 4.15 | ≤ 4.15 | 
FFAYVMNIER | 4.97 | 8.49 | 5.95 | 6.98 | 7.82 | 
FIHMVRCCK | 5.70 | 8.20 | 6.57 | 6.38 | 6.44 | 

Sequence | pKd [1, 10] | pKd [3, 10] | pKd [2, 10] | pKd [4, 10] | pKd [5, 10] | also measured
FLELKRGIYK | 8.92 | 7.05 | 8.32 | 6.92 | 6.02 | 
FLMAFANQIH |  |  |  |  |  | pKd [1, 14]: ≤ 4.16; pKd [3, 14]: ≤ 4.50; pKd [2, 14]: 4.93; pKd [4, 14]: ≤ 4.15; pKd [5, 14]: ≤ 4.62
FLSGRGLGK |  |  |  |  |  | pKd [2, 12]: 7.04
FSGKEPISDY | ≤ 4.28 | ≤ 4.17 | ≤ 4.15 | ≤ 4.15 | ≤ 4.15 | 
FTTNIWLKLR |  |  |  |  |  | pKd [3, 6]: 7.54; pKd [5, 6]: 7.17
FTTNIWMKFR |  |  |  |  |  | pKd [3, 8]: 8.76; pKd [4, 8]: 8.80; pKd [5, 8]: 7.53
FWKLVDRER |  |  |  |  |  | pKd [5, 15]: 7.35
GFDAWFSQR |  |  |  |  |  | pKd [1, 9]: ≤ 4.52; pKd [3, 9]: 5.37; pKd [2, 9]: 4.75; pKd [4, 9]: 6.88; pKd [5, 9]: 6.18
GLILFVLALY | 5.14 | 6.34 | ≤ 4.66 | ≤ 4.36 | ≤ 4.57 | 
GVTATITPR |  |  |  |  |  | pKd [4, 8]: 7.83
GVVFLHVTY |  |  |  |  |  | pKd [1, 9]: 5.47; pKd [3, 9]: ≤ 4.22; pKd [2, 9]: 5.09; pKd [4, 9]: 4.82; pKd [5, 9]: ≤ 4.11
HAKYMVTDK | 5.24 | 6.74 | 6.34 | 5.30 | 4.84 | 
HILHAYCGIK | 5.86 | 5.56 | 6.64 | 4.87 | ≤ 4.15 | 
IGQMFETTMR |  |  |  |  |  | pKd [5, 6]: 5.79
IIKLPTLFGR | 6.86 | 7.16 | 7.05 | 9.60 | 7.76 | 
IINFTISMR | 7.31 | 8.42 | 7.38 | 8.65 | 7.01 | 
ILRNYLRLY | 5.34 | ≤ 4.49 | 6.19 | 5.08 | 5.52 | 
ILSKWHTSAR | 5.45 | 6.07 | 7.44 | 6.90 | 6.40 | 
ISNMLSIINK |  |  |  |  |  | pKd [1, 15]: 6.95; pKd [2, 15]: 6.85
ITAKETLYR |  |  |  |  |  | pKd [1, 9]: 7.74; pKd [3, 9]: 7.81; pKd [2, 9]: 6.88; pKd [4, 9]: 6.71; pKd [5, 9]: 5.97
KATTQIAPK | 8.32 | 5.15 | 7.34 | 7.06 | ≤ 4.41 | 
KFNDYRKQMY | ≤ 4.65 | ≤ 4.49 | 5.32 | 6.71 | ≤ 4.23 | 

Sequence | pKd [1, 10] | pKd [3, 10] | pKd [2, 10] | pKd [4, 10] | pKd [5, 10] | also measured
KIMSIGFEAR | 7.44 | 7.06 | 6.76 | 8.22 | 6.25 | 
KINSVKYYGR | 6.87 | 5.27 | 5.73 | 7.52 | 5.62 | 
KIPIYSHTER | 5.94 | 5.82 | 5.97 | 7.59 | 5.92 | 
KLGEFGKAK |  |  |  |  |  | pKd [2, 6]: 7.66
KLMEEYLRR | 8.01 | 5.72 | 7.94 | 8.25 | ≤ 4.66 | 
KSFNHVLKRK |  |  |  |  |  | pKd [1, 9]: 8.21; pKd [3, 9]: 5.80; pKd [2, 9]: 9.00; pKd [4, 9]: 7.17; pKd [5, 9]: ≤ 4.15
KSLNRQTVSR | 6.73 | 5.15 | 7.06 | 8.11 | 5.88 | 
KSTQSVLCVK | 9.30 | 7.58 | 7.22 | 7.05 | 4.94 | 
KVIDLGCGR |  |  |  |  |  | pKd [4, 16]: 5.04
LACTDPSER | 4.70 | 6.76 | ≤ 4.26 | 6.24 | 5.64 | 
LAELLEMKY | ≤ 4.11 | ≤ 4.11 | 4.84 | ≤ 4.11 | ≤ 4.11 | 
LLAISAVYFK | 7.92 | 8.60 | 8.47 | 6.42 | 5.99 | 
LLNKEMYLK |  |  |  |  |  | pKd [1, 9]: 7.77; pKd [3, 9]: 5.96; pKd [2, 9]: 7.97; pKd [4, 9]: 6.81; pKd [5, 9]: 5.19
LLSIVVDINK | 7.44 | 6.96 | 6.31 | 5.96 | 4.98 | 
LSDIISAEK | 7.47 | 6.73 | 6.02 | 5.74 | 4.90 | 
MILMKMKKK |  |  |  |  |  | pKd [2, 8]: 7.06
MLIFNVKSK | 6.31 | 9.08 | 6.64 | ≤ 4.68 | ≤ 4.34 | 
MLIYSMWGK |  |  |  |  |  | pKd [1, 17]: 8.58; pKd [2, 17]: 7.97; pKd [4, 17]: 6.34; pKd [5, 17]: 5.69
MWTLMYFHR |  |  |  |  |  | pKd [4, 6]: 8.11; pKd [5, 6]: 8.82
NSALTLHWFR |  |  |  |  |  | pKd [3, 18]: 8.76; pKd [4, 18]: 8.45; pKd [5, 18]: 8.39
NSEYIESKAK | 5.71 | 5.38 | 5.23 | ≤ 4.47 | ≤ 4.51 | 
NTFPNITLK |  |  |  |  |  | pKd [1, 17]: 8.03; pKd [3, 17]: 9.11; pKd [2, 17]: 7.27; pKd [4, 17]: 6.23; pKd [5, 17]: 6.79

Sequence | pKd [1, 10] | pKd [3, 10] | pKd [2, 10] | pKd [4, 10] | pKd [5, 10] | also measured
PISASDMQK | 6.79 | 5.05 | 5.49 | 6.55 | 5.14 | 
PLHILASNK | 5.19 | 4.94 | 6.79 | 4.90 | ≤ 4.11 | 
PMFAVGLLFR |  |  |  |  |  | pKd [5, 16]: 7.04
QIFNEDTSYY | 6.14 | 7.93 | 5.85 | ≤ 4.45 | ≤ 4.15 | 
QKCGELLEFH |  |  |  |  |  | pKd [1, 19]: ≤ 4.16; pKd [3, 19]: ≤ 4.15; pKd [2, 19]: ≤ 4.15; pKd [4, 19]: 4.95; pKd [5, 19]: ≤ 4.15
QMREIITGNK | 5.77 | 4.91 | 7.80 | 5.71 | ≤ 4.32 | 
QQQGQTVTKK |  |  |  |  |  | pKd [1, 9]: 6.39; pKd [3, 9]: 5.08; pKd [2, 9]: 5.19; pKd [4, 9]: 4.86; pKd [5, 9]: ≤ 4.15
QVIAVEPGK |  |  |  |  |  | pKd [1, 16]: 6.11
RCHDHYLCR |  |  |  |  |  | pKd [1, 11]: ≤ 4.59; pKd [3, 11]: ≤ 5.00; pKd [2, 11]: ≤ 4.65; pKd [4, 11]: 6.04; pKd [5, 11]: ≤ 4.45
RLNNPVILSK | 7.92 | 5.35 | 7.93 | 5.81 | ≤ 4.26 | 
RMLFTSTNDK | 8.81 | 7.45 | 8.41 | 6.95 | 4.82 | 
RQDLLVTFK |  |  |  |  |  | pKd [1, 16]: 6.71
RSCSYKIGHH |  |  |  |  |  | pKd [1, 19]: 4.76; pKd [3, 19]: ≤ 4.29; pKd [2, 19]: 5.41; pKd [4, 19]: 6.53; pKd [5, 19]: ≤ 4.15
RSDGYFLKIK | 5.81 | ≤ 4.15 | 4.98 | 5.26 | ≤ 4.15 | 
SILASSLLR |  |  |  |  |  | pKd [1, 15]: 6.90; pKd [2, 15]: 6.14
TTIFAGHLK |  |  |  |  |  | pKd [1, 16]: 7.51; pKd [3, 16]: 7.60
TTSLFLHLV |  |  |  |  |  | pKd [2, 13]: 4.82; pKd [5, 13]: 5.65
TYLALIATFK |  |  |  |  |  | pKd [5, 15]: 7.16
TYSDPLALR |  |  |  |  |  | pKd [4, 16]: ≤ 4.11; pKd [5, 16]: 8.04
VVKDDPDHYK |  | ≤ 4.15 |  | ≤ 4.39 | ≤ 4.15 | 
WSLMYFHRR |  |  |  |  |  | pKd [4, 15]: 9.26; pKd [5, 15]: 9.63
YVLGIFLRK |  |  |  |  |  | pKd [1, 8]: 8.01; pKd [2, 8]: 8.91
